In PMC5882628, “Development of a Cell-Based Assay to Assess Binding of the proNGF Prodomain to Sortilin” (Cellular and Molecular Neurobiology, 2017):
Entries after “also recorded” stand apart in the source; their conditions may differ.

Tests used:
sortilin [1] = settings: immobilized sortilin; ref Nykjaer et al. [2004]; read-out: affinity (immobilized sortilin); cited from earlier work
From the text: The assay was also used to screen for blocking of sortilin-GSTpro interaction with compound AF38469, which ...

sortilin [2] = target: T1, sortilin (Homo sapiens, UniProt Q99523); test: Cell-based assay of GSTpro (NGF prodomain) binding/uptake, wt sortilin-transfected HEK293 cells, sortilin/GST double stain, high content imaging, with detergent; settings: for signal and assay window, GSTpro compared to proNGF (in words): Fig. 3u, sortilin-transfected cells
T1 construct: They were transfected with plasmids either encoding wild type sortilin, or sortilin with a mutation that renders it endocytosis deficient; expressed in transfected cells; host or cells: HEK 293 cells, transient transfection (lipofectamine)
T1 sequence (Q99523 78-831): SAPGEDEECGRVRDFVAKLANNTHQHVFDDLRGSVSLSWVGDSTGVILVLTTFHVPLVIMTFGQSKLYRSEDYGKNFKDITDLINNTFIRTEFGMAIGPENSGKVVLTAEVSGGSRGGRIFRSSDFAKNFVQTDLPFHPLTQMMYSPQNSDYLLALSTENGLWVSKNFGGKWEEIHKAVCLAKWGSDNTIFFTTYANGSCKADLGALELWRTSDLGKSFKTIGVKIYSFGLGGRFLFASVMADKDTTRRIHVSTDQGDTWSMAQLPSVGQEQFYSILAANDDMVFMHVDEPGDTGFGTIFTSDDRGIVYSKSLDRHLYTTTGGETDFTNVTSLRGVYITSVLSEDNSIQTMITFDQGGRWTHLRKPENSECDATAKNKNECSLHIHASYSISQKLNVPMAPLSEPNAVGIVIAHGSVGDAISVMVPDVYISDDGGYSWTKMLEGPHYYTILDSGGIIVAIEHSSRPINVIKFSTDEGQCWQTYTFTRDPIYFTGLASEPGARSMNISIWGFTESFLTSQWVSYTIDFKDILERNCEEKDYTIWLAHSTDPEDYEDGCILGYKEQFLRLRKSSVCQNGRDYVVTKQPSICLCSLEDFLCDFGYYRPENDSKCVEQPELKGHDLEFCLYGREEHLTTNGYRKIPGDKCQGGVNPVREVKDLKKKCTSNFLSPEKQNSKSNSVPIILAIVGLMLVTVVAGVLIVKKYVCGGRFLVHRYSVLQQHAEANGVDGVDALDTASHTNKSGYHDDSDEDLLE
Procedure: HEK 293 cells were grown in DMEM with 10% fetal bovine serum. They were transfected with plasmids either encoding wild type sortilin, or sortilin with a mutation that renders it endocytosis deficient, or an empty control vector according to manufacturer’s instructions using 20 µg lipofectamine (Thermo Fischer Scientific) with 8 µg DNA on […] per 6 cm, poly-lysine coated dish. The cells were initially plated into 24-well dishes after transfection. That intermediate step rendered more uniform cell numbers in the 96-well dishes that were used to run the actual assay. 24 h later, cells were split into black opaque-walled, clear-bottom 96 well dishes at 42000 cells in 80 µl medium/well. […] 1 h after that treatment, the medium was replaced with 80 µl medium containing the same antibody, compounds or peptides included in the preincubation medium, plus recombinant GSTpro or proNGF (either purified in-house from recombinant HEK cells or derived from an E.coli expression system at either 0 nM (negative control), or 50 nM, or, in a few instances at 5 or 10 nM. The respective concentrations are indicated in the figures 45 min after adding GSTpro or proNGF, cells were washed twice with prewarmed PBS and fixed in 4% PFA for 20 min at approximately 20 °C.
(§1) The fixed cells were washed with PBS for 15 min, followed by two 15 min washes with PBS with 0.1% Triton X-100. […] Wells to be evaluated for blocking of the sortilin-GSTpro interaction by antibodies were only stained with an antibody against the pro domain of proNGF in 10% FBS at a dilution of 1:1500 (Millipore (N-term) clone EPI318Y, Rabbit Monoclonal Antibody Catalog Number: #04-1142). […]
(§2) The following day, wells were washed 3 × 15 min with PBS/0.1% Triton X-100. […] Cellular fluorescence was quantified using an array scanner and the “Neuronal Profiler” Bioapplication (Thermo Fisher Scientific) as described below.
Sortilin-GSTpro interaction was also assessed using HEK cell derived cell lines stably expressing sortilin. […]
Images from 96 well dishes were automatically recorded with a Cellomics ArrayScan VTI HCS Reader (Thermo Scientific) using a 10× microscope objective and the build-in standard autofocus method. Fifteen 1024 × 1024 images in 4 channels (Channel 1 and 2: Filter XF5–Hoechst, to detect nuclei and all cells; Channel 3: XF53-Texas Red to detect, e.g., sortilin-positive cells; Channel 4: Filter XF93 – FITC, to detect cells positive, e.g., for the proNGF pro domain) were recorded per 96 well.
The images were analyzed with the Cellomics assay algorithm NeuronalProfiling.V3.5.

[3] = system: internalization-mutant sortilin; test: GSTpro binding to HEK293 cells expressing internalization-mutant sortilin; type: cell-based, human; settings: compared with wild type sortilin
Procedure: HEK 293 cells were grown in DMEM with 10% fetal bovine serum. They were transfected with plasmids either encoding wild type sortilin, or sortilin with a mutation that renders it endocytosis deficient, or an empty control vector according to manufacturer’s instructions using 20 µg lipofectamine (Thermo Fischer Scientific) with 8 µg DNA on […] per 6 cm, poly-lysine coated dish. The cells were initially plated into 24-well dishes after transfection. That intermediate step rendered more uniform cell numbers in the 96-well dishes that were used to run the actual assay. 24 h later, cells were split into black opaque-walled, clear-bottom 96 well dishes at 42000 cells in 80 µl medium/well. […]
as §1, §2

B1: GSTpro: fusion of Glutathione S-transferase (GST) merged at the C-terminal of GST to the pro part (19–121) of human proNGF (protein)
chain: EPHSESNVPAGHTIPQAHWTKLQHSLDTALRRARSAPAAAIAARVAGQTRNITVDPRLFKKRRLRSPRVLFSTQPPREAADTQDLDFEVGGAAPFNRTHRSKR
modifications: left off: GST, N-terminal, kept
notes: fusion of Glutathione S-transferase (GST) merged at the C-terminal of GST to the pro part (19–121) of human proNGF
Kd (sortilin [1]): 8 nM
signal and assay window, GSTpro compared to proNGF (in words) (sortilin [2]): substantially larger compared to proNGF
signal and assay window, GSTpro compared to proNGF (in words) (sortilin [2]; listed as GST-pro): larger signal and assay window
GSTpro signal, sortilin-positive versus sortilin-negative (or control-transfected) cells (in words) (sortilin [2]; Figs. 3, 4b, 6, 7, 8): highly enhanced GSTpro uptake or binding; also recorded: several fold higher GSTpro signal in sortilin-positive cells
GSTpro signal in internalization-mutant versus wt sortilin cells (in words) [3]: stronger GSTpro signal than wild type sortilin; also recorded: slightly higher signal
